Test results published in the supplement of paper PMC11502859.

Test system: HEK293T
Assay: median enrichment of reporter reads in eGFP-reduced (low/intermediate) vs eGFP-high sorted cells (eGFP-extension fusion abundance) (ratio); higher = stronger loss of eGFP-fusion protein abundance (more destabilising extension)
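Also: lentiviral eGFP-IRES-mCherry reporter pool sorted by FACS 96 h post-transduction, gated on mCherry-high cells, Illumina read counts normalized per million, median across four biological replicates.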

Substance | median enrichment
GSGLCLVLSLPGRCSTPYRGGQLRAWAASSWTQLSRSSCSAQGGHMSEPRSWTSTQEDASEGKEIFYGLRPECQY [KLRG2] | 7.23
GSGP [LCE1D] | 0.314
GSPLCLGLLLPREFSPLTYPHLSGLTGRNHCTTERGWDGPASCLWEKTSCLGRGLCLVKVPTGNP [ITGAX] | 5.38
GSRGRGGESPPRPPLPSPPGSRGSGLGRLPIPLLQAALIPHRN [FBXO46] | 5.21
GSSC [KRTAP13-1] | 0.297
GSSTETGASSSSLGCGPSSRTRTSATSRASWRAWASARAASSLTASAASSAA [CCM2L] | 13.6
GSVQGFLGPSCLS [KCNA10] | 0.463
GSYISPSIRGHTQESNFALLQALVEAA [ZNF337] | 9.72
GTHNLHLSGYYYRFLHAQSRRIWTQMVTITSWPTNKKVLTML [ZNF717] | 7.8
GTLTV [ABCB1] | 0.767
GTQSSLLAVDFPLLLEPPIKEIQRDSCRPEAEHTFMAGALRGVLDPAPGDTIHFYCFVVTRALQPVFLKNQGPLPPPLPWGET [PLOD1] | 6.78
GTSLALLTHPRNTISGTRAAPRTRGYSRHNLIERAPAALTSTAFDTYASLVLLLSSESSCAHAFSRMGSPLAVAASVLALASS [KIAA1522] | 6.48
GTSPAPLRTPPRLDGWAHASHWGPGSRRWAPTLGPRGAANHTGLRPSYPAPSPSTSTFTSPPFHFFLYVFFLLETDSIHIEYN [JUNB] | 4.58
GVFDS [DDX50] | 0.357
GVPAHSCGKGGEGRRARPEQGAGGRAQYLTRAAVLINVPMAGPRSEPASSATVTFSLRDGGGGSLSRWLSRPRSRPWVLSQLG [DUSP9] | 4.83
GVPGHSGLVQTPLL [PAF1] | 0.255
GVSGGEERRADLGRALRTWPRARDSPGSSSPWQAQQHVPQIWKGLPLCQCLGGCHGCPHPLLSVCGVEEPTPASCQDHLGGHT [GPRC5C] | 1.27
GVWLSHGIPGKGLTQ [PTPA] | 2.08
GWGLQGRGLAPFSLSY [NR1H4] | 13.8
GWLPRPGRLLDILFWLNIVLWMVPQSGARILPRRKATNGSGNYIKPETLQQGENCAPGCLAQASLEPSKHFCPS [MAB21L3] | 7.37
GWVRISTTFLDTVK [HBS1L] | 11.5
GYSHPGTEKAADGDCLPQPQQHLGLQLLESYHPRRQAQPGRGEEWAVKMKPHAQSPPIPHAAPPQSQATSCLLLVGGGLLSPS [LGALS9] | 3.94
HFWGVTDFVHGFKVYFYGLVIAEFLFWGEGKGASPLLLALRPRRLLCAANCIYCDALVRAPLPTSPSQLWPQPLSLCCVEWTP [TSPYL2] | 8.4
HHH [His03] | 0.477
HHHH [His04] | 0.323

Substance | median enrichment
HHHHH [His05] | 0.675
HHHHHH [His06] | 0.337
HHHHHHH [His07] | 0.367
HHHHHHHH [His08] | 0.421
HHHHHHHHH [His09] | 0.435
HHHHHHHHHH [His10] | 0.464
HLPIPASLARALLGPEQRRTCPTHTAIYSSRHRAPLPYSWSQQPGNGVALHWPLASTLSGAPAVGWGTPAKDQFGCLIPGAVT [CRHR2] | 3.84
HTTGQGCGAGAIPAPFPGPRGLGSLPSHPGLVPPGAPTVEIRRGWNGGRGGAGGPHPSAALGLGPHPSGGPEAGGGNPRGWLF [GNB2] | 0.37
III [Ile03] | 3.74
IIII [Ile04] | 11.9
IIIII [Ile05] | 8.97
IIIIII [Ile06] | 8.61
IIIIIII [Ile07] | 11
IIIIIIII [Ile08] | 5.38
IIIIIIIII [Ile09] | 9.46
IIIIIIIIII [Ile10] | 6.67
IPVPEHQIPRQLMRLAQCVTEAPGSQQSRAYSAHQAEQATGRDDASGQGSAGDRDYRPAVSGPLQRLPTQGLVGVKHDDNTYT [CCDC137] | 0.864
ITGTACLGTRFPPAAVTMVASTATPGVQSTAPCPPCVPRSRGSVHHSSPRWRAGLPGGSPVALPWLWGWRDLARMNPPVPGTL [PIGQ] | 3.37
IVGPKGKEGKSAPRLGPGTHTPPDHLGNSRALRSRMLTKSNIQSLVNQDAVSPSVWQSVALAAGKLKADFHSYVHVDIHFRSS [RNF150] | 4.94
IYPSPGSPGHSVLSKTRMWYQLWKRKVSCQQYLLPSRQPSQVRHLLRSHREPGVCTSWKSCHQPGHSSHRIDQRACFLIQENE [SPSB4] | 7.01
KAAWPQYGPLFAGFSSSLEPPSVGGPPISPLKPALLFWGDPLLLSFPKHGVPWPAFFLCLWWGWGGLFLLAPSGGGGQVTRSG [JUP] | 4.75
KAGTDLGPKIPFQRN [RBMXL2] | 0.175
KAQKTEALLPLAGSRDI [PNMA5] | 0.301
KARFLAVQFLLKVPLFPKSNY [HBB] | 5.47
KCDKVQPSDLIIHKIIYT [ZNF679] | 15.1

Substance | median enrichment
KCEACDKVSIWKSHLKDIGEFILERKLTNVRFLTRLGSDSHLEQHTGLHTGEKPYKCNECGKAFGKQSTLIHHQAIHGVGKLD [ZNF611] | 6.92
KCSIYIYN [REC114] | 18.5
KCYRLNDSASRLPKSKALFRAAHSFPQKSS [HIST1H4E] | 8.92
KDCDFFVKEAVRIIINNSNSLHFSQGVHCS [MAATS1] | 5.42
KDS [RPAP1] | 0.532
KECSKCGGKS [ZNF671] | 0.995
KEENKQNQPPHHRVLQQDMHTIGA [CDCA7L] | 11.9
KEHLWFT [NPAP1] | 1.2
KELFQFIE [FOXJ3] | 0.495
KFFRMQPGGTWI [DCAF4L2] | 2.96
KFGAQTSP [SPRR3] | 0.603
KFLSF [FNBP4] | 1.62
KFRSPHFSAPRMVLFIFHHL [SLC43A3] | 9.56
KFSLLHYVHKGDHYHWGRNSCLVQCGKFLYIR [PDZRN3] | 12.1
KFVISFICIYVVN [HEATR5B] | 13.7
KGN [CYTL1] | 0.283
KGPEPGWGISAGQRRRLSQLFPDIQGHCSLLPSRTSLLPPTMAGGEQVSQKHPVPRMVLCACPSLLGLPFPLLREDVSLLTCT [KIRREL1] | 7.38
KGPPLLILPTPPPRFSHWPGLGCPYRRSVCSPTVRRGHTLQNTAQNSKKSLHAK [IFI35] | 11.2
KGPPRAQGPGAPRGWGQTKTRQRGERRERAGAGPLGAELGASGGRRLMFYKL [IER5L] | 40.8
KGRGPAESPCCLLEPPADAVLGPT [MBD3] | 1.08
KGRINK [NPIPA1] | 0.274
KHGGFGS [AKAIN1] | 0.558
KHHQSVKGLCGMQEFQTHGQSGLFFLVLRASSEHRSHIAAHREGWNEKWKRGSTFLLGDMNHLCSYYVIRNLVAWPYLAAREP [CFAP61] | 4.22
KHLHVLSNFACPFSSVSE [CYB5R2] | 2.44
KHVVLWVHFV [ABHD3] | 10.5

Substance | median enrichment
KICQDKGSEDWTCSDIGVLLPSS [MAPK1] | 2.3
KIFFSPIFLPASGDTAAVTREASLGGPDAQGESWSGESMSCDTTAGAICSPAFLSVGEGISEFILYPRLAFTKFKSLSMRPRP [PGPEP1] | 11.5
KIFLELLAIVTECPPFQSQLKTSAP [HEY2] | 4.36
KILNLVCRPSRGIKRLALVVKNKADSQTRSDFCPCSSFDVLSVALFLIASSTCKMLFTFCLG [DAB2] | 18.3
KIMRHTV [TBC1D32] | 6.86
KISVETYTVSSQLLMVLMSLDLDTGLVPSLVSKCLILRVK [VHL] | 5.01
KITF [SNCAIP] | 0.77
KIWLFMHCGMCSSFSVFRYKVLYQSVIYKVYQHKCW [MLH1] | 5.38
KKCEECGKSFS [ZNF676] | 0.361
KKEKKQAILDENANGKIHITSYLL [PRDM4] | 6.45
KKK [Lys03] | 0.373
KKKEKKAKKKK [IQCA1] | 0.903
KKKK [Lys04] | 0.575
KKKKK [Lys05] | 0.46
KKKKKK [Lys06] | 1.5
KKKKKKK [Lys07] | 0.751
KKKKKKKK [Lys08] | 1.65
KKKKKKKKK [Lys09] | 3.65
KKKKKKKKKK [Lys10] | 1.08
KKKKKKRRKKLL [CCNT1] | 0.26
KKKKKQQVMELHILVTQWTIIGSHWKSGKNPWRLSFSDILPNALLSRIFVSFCLIFWGVFVVVGLFFVFFF [PPP1R12A] | 4.71
KKKLSHREKNI [OGA] | 0.598
KKLRS [CRYGN] | 0.509
KKNQNGLR [ADGRB3] | 0.618
KKNVEAIGLLGG [Degron KLHDC2] | 5.08

Substance | median enrichment
KKPPAQLETC [METTL16] | 0.455
KKSSINVLSIGKYT [GRIN2A] | 1.77
KKTSSR [LGALS2] | 0.594
KKVGRARPCQRG [Degron KLHDC3] | 6.66
KKVGTMRGVGYP [Degron APPBP2] | 4.39
KLDLII [OR4S2] | 1.99
KLICKIRNWTHIALFECEVR [RNF182] | 12.7
KLQC [OR4C6] | 0.547
KLSNH [WDR27] | 0.453
KMDPCEIYHSLVSPSFLSFLNSTFWRDFPK [OR9Q2] | 3.34
KMF [EFCAB2] | 0.649
KNAPSDLASKKSCSVPCVLSFKGIFRINSDLEDSSVLQRLAFIFIVIMEMLSFILSYIRKKGVMQLISISLGNALVLFSSFLV [CREB5] | 15.5
KNAQLL [ROR1] | 0.376
KNF [PLXDC2] | 0.62
KNQGCFEGKGSLSYALLYHQDYILKRKSSM [GPR65] | 11.5
KPERSQDPSRQHQLTDALVVPPSSPDCARSAVPSSGHLSSLWVPPHPSPC [RBP5] | 5.79
KPGNPYSFSNTGSFI [ADAM30] | 0.59
KPKEVPGTVSDLERSQKENNIIK [CELA2A] | 0
KPSEFSL [CD163] | 0.535
KPVLGPSVKYP [GNPDA1] | 0.312
KQEWQSKLKL [UHRF1BP1L] | 0.342
KQGRWERDCLLPLLSSSCLEVEAV [GRM6] | 6.27
